From paper PMC5615192 (mBio, 2017)

Experiments:
[1] = biological target: T1, HPV58 L1 pentamer (human papillomavirus type 58, UniProt P26535); assay: crystal structure; settings: both partners purified
T1 construct: also called HPV58p; HPV58 pentamer

[2] = biological target: the molecule itself; assay: crystal structure

Row | Binder | stoichiometry N [1] | stoichiometry N [2]
1 | A12A3 Fab (Fab, V domains shown, also called Fab fragment of A12A3; source: papain digestion of MAb A12A3, purified with DEAE-5PW exchange) VH: EVQLQQSGAELVRPGALVKLSCKASGFNIKDYYMHWVKQRPEQGLEWIGWIDPENGKTIYDPRFRGKASITADTSSNTAYLQLSSLTSEDAAVYYCATSNYRYDRSFDYWGQGTTLTVSA VL: DIQMTQSPSSLFASLGGKVTITCKASQDINKYIAWFQHKPGKGPRLLIHYTFTLQPGIPSRFSGSGSGRDYSFSISNLEPEDIATYYCLQYHNLYTFGGGTKLEIK | 1 Fab per pentamer | 
2 | HPV58 L1 pentamer (natural protein, also called HPV58p; HPV58 pentamer) EATVYLPPVPVSKVVSTDEYVSRTSIYYYAGSSRLLAVGNPYFSIKSPNNNKKVLVPKVSGLQYRVFRVRLPDPNKFGFPDTSFYNPDTQRLVWACVGLEIGRGQPLGVGVSGHPYLNKFDDTETSNRYPAQPGSDNRECLSMDYKQTQLCLIGCKPPTGEHWGKGVACNNNAAATDCPPLELFNSIIEDGDMVDTGFGCMDFGTLQANKSDVPIDICNSTCKYPDYLKMASEPYGDSLFFFLRREQMFVRHFFNRAGKLGEAVPDDLYIKGSGNTAVIQSSAFFPTPSGSIVTSESQLFNKPYWLQRAQGHNNGICWGNQLFVTVVDTTRSTNMTLCTEVTKEGTYKNDNFKEYVRHVEEYDLQFVFQLCKITLTAEIMTYIHTMDSNILEDWQFGLTPPPSASLQDTYRFVTSQAITCQKTAPPKEKEDPLNKYTFWEVNLKEKFSADLDQFPLGRKFLLQSGLKAKPRLKRSAPTTRAPSTKRKKVKK |  | 5
